The test has as its target pre-fusion, protease-resistant, trimeric transmembrane (TM)-deleted spike (S) glycoprotein from SARS-CoV-2 (SARS-CoV-2 (Wuhan-Hu-1) | not stated). The test is described as follows: SEC + other: SDS-PAGE.

With “pre-fusion, protease-resistant, trimeric transmembrane (TM)-deleted spike (S) glycoprotein from SARS-CoV-2”, the stoichiometry N is 3.

The values above are taken from paper doi:10.1101/2021.09.24.461759.
